Assay [1] has as its system each histone. Put plainly: ELISA binding assay. More on the design: species or system human. The conditions noted are these: immobilized recombinant histone. As to the method: Recombinant human histone (NEB) was adjusted to a concentration of 1 μg/mL in TBS, added to a 96 well ELISA plate, and immobilized at 4° C. overnight. The solution was discarded, a blocking buffer (TBS, 0.1% Triton-X100, 1% BSA) was added, and the plate was incubated at room temperature for 2 hr. The plate was washed four times with a wash buffer (TBS, 0.1% Triton-X100), recombinant PTX3 diluted to various concentrations with the blocking buffer was added to each well, and reacted at room temperature for 1 hr. After washing four times with the wash buffer, HRP-labeled antibody diluted with the blocking buffer was added, and reacted at room temperature for 1 hr. After washing four times with the wash buffer, TMB solution was added to carry out a color development reaction for 30 min, and the absorbance at 450 nm was measured. […]
The binding level between immobilized each recombinant histone and tag-free recombinant human PTX3 (rhPTX3) was measured by binding assay (ELISA). […] ELISA was performed with duplicate wells for each point, and means and standard deviations were calculated from three independent experiments.
The binding level between immobilized each recombinant histone and a tagged human PTX3 fragment was measured by binding assay (ELISA). […] ELISA was performed with duplicate wells for each point, and means and standard deviations were calculated from three independent experiments.
For orientation: In an ELISA, binding on a coated surface is turned into a signal by an enzyme label.

Assay [2] deals with each histone. Briefly: BIAcore / surface plasmon resonance (SPR) measurement. The assay is classed as binding, human. The conditions noted are these: immobilized recombinant histone. As to the method:
For the measurement, BIAcore 3000 or T200 (GE Healthcare) was used. Recombinant human histone was immobilized on CM5 sensor chip by an amine coupling kit (GE Healthcare). The reaction with recombinant PTX3 was performed using a buffer (150 mM NaCl, 20 mM HEPES, 0.005% surfactant P20 (pH 7.4)) at a flow rate of 20 μl/min. Measurement was performed using the buffer containing […]. The sensor chip was regenerated in IM sodium acetate (10 μL, pH 7.2) and 10 mM NaOH (10 μL).
The binding of immobilized each recombinant histone, and Myc- and His-tagged human PTX3 fragment was measured by surface plasmon resonance (SPR). The highest concentration of each PTX3 was as follows. full-length PTX3: 1 nM, N-terminal domain of PTX3: 5 nM, C-terminal domain of PTX3: 50 nM. The assay buffer contained 4 mM CaCl2 (Ca^2+) or 4 mM EDTA/EGTA. The affinity measured by SPR was calculated from three experiments.
A general note: In SPR one partner is held on a chip, and binding of the other changes the refractive index at the surface.

Assay [3] relates to Calf Thymus Histones. Put plainly: Aggregation with histone, absorbance at 310 nm. It counts as binding. The note with it: mixture with Calf Thymus Histones. As to the method: The lower left figure and the lower right figure show the measurement results of absorbance at 310 nm of a mixture of a wild-type or oligomer formation capacity-deficient mutant of PTX3 N-terminal domain having each concentration and 0.1 mg/mL Calf Thymus Histones at 1:1 vol.
The aggregation activity of PTX3 and other pentraxins to histone was evaluated. Calf Thymus Histones (50 μg/mL) were mixed with a PTX3 fragment or the other pentraxin at each concentration, and the absorbance at the wavelength of 310 nm was measured. Before mixing, samples were dialyzed against 4 mM CaCl2-containing TBS.

Assay [4] relates to each histone variant. Put plainly: Aggregation of each histone variant and PTX3 fragment, absorbance at 310 nm. The assay is classed as binding. The conditions noted are these: histone variant 50 μg/mL, PTX3 fragment 30 μg/mL. As to the method:
Each histone variant (50 μg/mL) and each PTX3 fragment (30 μg/mL) were mixed, and the absorbance at the wavelength of 310 nm was measured. Before mixing, samples were dialyzed against 4 mM CaCl2-containing TBS.

For assay [5], the system named is Calf Thymus Histones on HUVEC. Put plainly: Cytotoxic assay: suppression of histone cytotoxicity on HUVEC. The assay is classed as cell-based, human. The note with it: 100 μg/mL Calf Thymus Histones, 40 μg/mL protein, 1 hr, PI staining, FACS. As to the method: After culturing for 1 hr in a medium concurrently containing 100 μg/mL Calf Thymus Histones and APC (200 nM), PTX3 (40 μg/mL), CRP (40 μg/mL) or SAP (40 μg/mL), the level of toxic activity was measured by FACS.
Normal human umbilical vein endothelial cells (HUVECs) were cultured in EGM2 medium (Clonetics). The cells after culture were washed with PBS, added with Opti-MEM medium containing an product of incubation of activated protein C (APC), PTX3, C reactive protein (CRP) or Serum amyloid P component (SAP) with histone for 1 hr, and the cells were further cultured for 1 hr. Propidium iodide (PI) was added to the medium after culture at a final concentration of 10 μg/mL, and the cells were stained for 10 min. The cells were washed with PBS, detached and analyzed by flow cytometry.
The histone cytotoxicity on HUVEC was evaluated by propidium iodide (PI) staining.
Lastly, capacity of suppressing the cytotoxic activity of histone was confirmed. Since this experiment requires a certain amount of protein and an endotoxin-elimination as treatment, a protein was expressed and purified at a 500 mL culture scale, and subjected to an endotoxin-elimination treatment (FIG. 18). In the case of PTX3 N-terminal domain, about 10 mg was obtained at a 500 mL culture scale, and a loss by the endotoxin-elimination treatment was scarcely observed. […]

“Also recorded” adds a separate entry of the source.

This is an account of results in US20150299277A1, “AGENT FOR TREATING OR PREVENTING SYSTEMIC INFLAMMATORY RESPONSE SYNDROME” (THE UNIVERSITY OF TOKYO, priority 2012, published 2015).

B1: C-terminal domain of PTX3: C-terminal domain human PTX3 (179-381 amino acids), Myc- and His-tagged (protein)
chain: CETAILFPMRSKKIFGSVHPVRPMRLESFSACIWVKATDVLNKTILFSYGTKRNPYEIQLYLSYQSIVFVVGGEENKLVAEAMVSLGRWTHLCGTWNSEEGLTSLWVNGELAATTVEMATGHIVPEGGILQIGQEKNGCCVGGGFDETLAFSGRLTGFNIWDSVLSNEEIRETGGAESCHIRGNIVGWGVTEIQPHGGAQYVS
modifications: left off: small tags and cut ends
notes: C-terminal domain human PTX3 (179-381 amino acids), Myc- and His-tagged
Regarding B1, the “bindability to each histone (binding assay)” value in assay [1] was “weak”. Also, the “affinity for each histone by SPR” value in assay [2] is on record as “full-length PTX3>N-terminal domain>C-terminal domain”. The “aggregation with Calf Thymus Histones, absorbance at 310 nm” value (“aggregation with Calf Thymus Histones” below) in assay [3] is “weaker than that of the full-length PTX3 and N-terminal domain of PTX3”. The “aggregation with each histone variant, absorbance at 310 nm” value in assay [4] is listed as “aggregated”.

B2: N-terminal domain that lost the oligomer formation capacity: N-terminal domain human PTX3 wherein the 47th, 49th, 103rd cysteine residues were replaced with serine residue (protein)
chain: ENLYFQGENSDDYDLMYVNLDNEIDNGLHPTEDPTPSDSGQEHSEWDKLFIMLENSQMRERMLLQATDDVLRGELQRLREELGRLAESLARPSAPGAPAEARLTSALDELLQATRDAGRRLARMEGAEAQRPEEAGRALAAVLEELRQTRADLHAVQGWAARSWLPAG
modifications: left off: small tags and cut ends
notes: N-terminal domain human PTX3 wherein the 47th, 49th, 103rd cysteine residues were replaced with serine residue
With B2, the “bindability to each histone (binding assay)” value in assay [1] was “decrease; also recorded: scarcely bound”. Besides, in assay [2], the “affinity for each histone by SPR” value is given as “affinity decreased as compared to the wild-type”. Besides, in assay [3], the “aggregation with Calf Thymus Histones” value is given as “decrease; also recorded: decreased aggregation activity”.

B3: CRP: C-reactive protein, short pentraxin used as comparator (protein, UniProt P02741 19-224, looked up)
C-reactive protein: QTDMSRKAFVFPKESDTSYVSLKAPLTKPLKAFTVCLHFYTELSSTRGYSIFSYATKRQDNEILIFWSKDIGYSFTVGGSEILFEVPEVTVAPVHICTSWESASGIVEFWVDGKPRVRKSLKKGYTVGAEASIILGQEQDSFGGNFEGSQSLVGDIGNVNMWDFVLSPDEINTIYLGGPFSPNVLNWRALKYEVQGEVFTKPQLWP
For the molecule B3, the “suppression of toxic activity of Calf Thymus Histones on HUVEC” value in assay [5] is “do not have such suppressive effect”. Moreover, the “aggregation with Calf Thymus Histones” value in assay [3] was “no aggregation capacity; also recorded: scarcely showed an aggregation activity”.
